Laboratory results from patent US20200368363A1 (MAGENTA THEERAPEUTICS, published 2020).

T1: human CD2 on cells (MOLT-4 human T lymphoblast cells; primary human T-cells; primary human NK cells) (human, UniProt P06729 25-351)
T1 sequence: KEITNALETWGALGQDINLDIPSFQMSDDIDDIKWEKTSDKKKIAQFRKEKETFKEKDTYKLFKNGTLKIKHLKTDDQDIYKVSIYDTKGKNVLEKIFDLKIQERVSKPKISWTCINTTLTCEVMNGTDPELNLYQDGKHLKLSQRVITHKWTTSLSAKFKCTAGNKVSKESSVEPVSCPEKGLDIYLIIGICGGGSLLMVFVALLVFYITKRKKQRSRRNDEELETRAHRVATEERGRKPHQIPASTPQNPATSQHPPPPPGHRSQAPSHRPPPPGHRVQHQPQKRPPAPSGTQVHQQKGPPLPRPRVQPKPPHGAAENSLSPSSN

B1: anti-CD2-amanitin ADC (RPA-2.10-AM), interchain, average drug-to-antibody ratio 6 (antibody, V domains shown)
VH: EVKLVESGGGLVKPGGSLKLSCAASGFTFSSYDMSWVRQTPEKRLEWVASISGGGFLYYLDSVKGRFTISRDNARNILYLHMTSLRSEDTAMYYCARSSYGEIMDYWGQGTSVTVSS
VL: DILLTQSPAILSVSPGERVSFSCRASQRIGTSIHWYQQRTTGSPRLLIKYASESISGIPSRFSGSGSGTDFTLSINSVESEDVADYYCQQSHGWPFTFGGGTKLEIER

Columns and labels:
[1] = molecular target: human CD2 on cells (MOLT-4 human T lymphoblast cells; primary human T-cells; primary human NK cells) (human) (UniProt P06729); test: flow cytometry on MOLT-4 cells, anti-mouse AF488 secondary, 4 C
[2] = molecular target: T1, human CD2 on cells (MOLT-4 human T …); test: cell-based or functional assay

Molecule | EC50 [1] [nM] | NK cell viability (CellTiter-Glo), in vitro NK-cell killing assay, IC50 [2] [nM]
TS1/8 (antibody) | 0.125 | –
B1 | – | 0.0052
